Assay results: the supplement of paper PMC9732359
± gives the uncertainty stated by the source.

Experiment: protein stability index of a GFP-peptide fusion (yeast GPS) (PSI 1-4); higher = more stable; sorted into four equal gates, so the index is relative within each strain
Method in brief: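 Tiled 17-residue peptides from yeast proteins were fused downstream of GFP on a plasmid that also expresses Cherry, and the pooled library was carried in yeast. Mid-log cultures grown in leucine-free medium were sorted into four equal gates by GFP/Cherry fluorescence ratio. Plasmids from each gate were PCR-amplified and Illumina-sequenced, and reads were assigned to strains by barcodes. Each peptide's protein stability index is the sum, over gates, of the gate's read frequency multiplied by its gate number.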

Sequence | protein stability index (doa10∆) | protein stability index (pdr5∆) | protein stability index (san1∆) | protein stability index (ubr1∆)
YHSGRLLIQGPKASSAK [ITC1] | 3.15 ± 0.11 | 3.29 ± 0.078 | 3.2 ± 0.059 | 3.17 ± 0.073
YILANHYLSRVLSDQVG [YJL039C/NUP192] | 2.87 ± 0.064 | 2.98 ± 0.078 | 2.72 ± 0.07 | 2.54 ± 0.049
YILRYLHANGASFFFMV [COB] | 1.57 ± 0.041 | 1.27 ± 0.033 | 1.39 ± 0.081 | 1.36 ± 0.038
YITARIMAKRPFDKKSN [FAS1] | 2.74 ± 0.094 | 2.79 ± 0.078 | 1.96 ± 0.12 | 2.86 ± 0.081
YKEQIIQGFYWAVKEGP [SNU114] | 2.75 ± 0.088 | 2.38 ± 0.064 | 2.23 ± 0.09 | 2.38 ± 0.08
YKMVQEQLSKQRDLYKR [SMC2] | 3.1 ± 0.097 | 3.03 ± 0.087 | 2.45 ± 0.16 | 3.09 ± 0.063
YKNLDRGFSKDLKSKAD [RRP6] | 3.05 ± 0.1 | 3.27 ± 0.15 | 3.31 ± 0.065 | 3.53 ± 0.099
YKPLIEERMGQIENLNE [SMC4] | 3.2 ± 0.23 | 3.34 ± 0.098 | 3.46 ± 0.071 | 3.28 ± 0.068
YKQAMNETSEQLVPIRL [SNF5] | 3.23 ± 0.16 | 3.12 ± 0.15 | 3.08 ± 0.22 | 3.43 ± 0.12
YKVDNMTRILPQQSRYI [RPN2] | 2.29 ± 0.077 | 3.03 ± 0.12 | 2.5 ± 0.1 | 2.56 ± 0.099
YKVMHQIRACKDLKHII [PRP8] | 2.27 ± 0.041 | 2.41 ± 0.046 | 2.21 ± 0.052 | 2.19 ± 0.05
YLAENPDPNFENSIGYN [PRP8] | 3.28 ± 0.065 | 3.08 ± 0.061 | 3.12 ± 0.088 | 3.19 ± 0.054
YLERIELSFYILYSFKL [YML103C/NUP188] | 1.49 ± 0.057 | 1.37 ± 0.044 | 1.2 ± 0.08 | 1.59 ± 0.037
YLIVAGVDPTGSHLFSI [PUP1] | 1.84 ± 0.081 | 2.24 ± 0.085 | 1.94 ± 0.14 | 2.09 ± 0.068
YLKGATGHSQGLVTAVA [FAS1] |  |  |  | 3.86 ± 0.23
YLLASLKDSKDFDESLK [RPN9] | 2.69 ± 0.083 | 2.82 ± 0.088 | 2.82 ± 0.099 | 2.52 ± 0.084
YLLENNQVGTDELILPL [YDL116W/NUP84] | 3.18 ± 0.081 | 3.06 ± 0.11 | 3.07 ± 0.069 | 2.89 ± 0.057
YLMDSKNVRTRIKLATT [RRI1] | 2.09 ± 0.08 | 2.07 ± 0.073 | 1.61 ± 0.099 | 1.99 ± 0.061
YLNDLMITKRILEVGAL [RPN12] | 1.29 ± 0.16 |  |  | 
YMDSMNEKVAVMRNTYN [GAL11] | 2.72 ± 0.13 | 3.24 ± 0.062 | 2.35 ± 0.069 | 2.34 ± 0.098
YNGRGARERKTATYNDN [SNF2] | 3 ± 0.069 | 2.54 ± 0.074 | 2.69 ± 0.074 | 2.69 ± 0.071
YNVCDTSKSLVKRYRLA [SIN4] | 2.39 ± 0.055 | 2.81 ± 0.058 | 2.58 ± 0.062 | 3.16 ± 0.042
YPFDKLESWWLVLGEVS [BRR2] | 3.18 ± 0.18 | 3.23 ± 0.15 | 3.46 ± 0.11 | 3.41 ± 0.24

Sequence | protein stability index (doa10∆) | protein stability index (pdr5∆) | protein stability index (san1∆) | protein stability index (ubr1∆)
YPFLLSFLGEAKSMAFL [YML103C/NUP188] | 2.18 ± 0.084 | 2.35 ± 0.067 | 2.29 ± 0.11 | 2.38 ± 0.048
YPFVTNDDIEWMLSICV [YJR042W/NUP85] | 2.29 ± 0.083 | 2.56 ± 0.061 | 2.67 ± 0.059 | 2.68 ± 0.058
YQKNKPYPKSRYNRAVP [RPL10] | 2.91 ± 0.045 | 3.06 ± 0.045 | 3.06 ± 0.04 | 2.85 ± 0.038
YRLMIKRLNFSFVGDYM [GRR1] | 2 ± 0.065 | 1.41 ± 0.052 | 1.53 ± 0.095 | 1.51 ± 0.054
YSAAKKIPDTYTANTSA [YAR002W/NUP60] | 2.43 ± 0.11 | 2.19 ± 0.082 | 2.2 ± 0.077 | 2.55 ± 0.038
YSDIGGLESQIQEIKES [RPT2] | 1.8 ± 0.095 | 1.97 ± 0.08 | 1.88 ± 0.096 | 2.52 ± 0.091
YSLHQIRKDPNNLSNQL [CSE2] | 2.54 ± 0.076 | 2.66 ± 0.071 | 2.65 ± 0.054 | 2.77 ± 0.04
YSRILKSMGRKCFDDIE [YCG1] | 3.16 ± 0.17 | 2.35 ± 0.12 | 2.92 ± 0.21 | 2.16 ± 0.13
YSSKPYKVDNMTRILPQ [RPN2] | 2.62 ± 0.073 | 2.88 ± 0.072 | 2.62 ± 0.082 | 2.31 ± 0.067
YTNSVELRSLSKKDFKI [YMR129W/POM152] | 2.41 ± 0.057 | 2.64 ± 0.058 | 2.32 ± 0.078 | 2.92 ± 0.069
YTRYLDRIYMLFHFEED [PRP8] | 1.68 ± 0.059 | 1.4 ± 0.051 | 1.5 ± 0.12 | 1.61 ± 0.043
YVIKALQSLTSKGYVKT [RPS10A] | 2.88 ± 0.12 | 1.74 ± 0.072 | 1.39 ± 0.17 | 2.6 ± 0.089
YVKAVSDKAQLNVVMKN [SMC4] | 2.1 ± 0.074 | 2.07 ± 0.063 | 1.6 ± 0.11 | 2.19 ± 0.053
YVLYAKIVVLSRTGPVF [RRP43] | 1.29 ± 0.097 | 1.15 ± 0.077 | 1.11 ± 0.16 | 1.19 ± 0.06
YVSALKRINKFLDSVHK [POP7] | 1.91 ± 0.049 | 1.56 ± 0.037 | 2 ± 0.068 | 1.8 ± 0.034
YVSQIRKHKRVSPNAAP [YAR002W/NUP60] | 1.95 ± 0.084 | 1.64 ± 0.053 | 2.53 ± 0.085 | 2.29 ± 0.081
YVTKPMVNESDGVTHAL [RPB2] | 3.2 ± 0.088 | 3.28 ± 0.087 | 2.94 ± 0.081 | 3.36 ± 0.082
YWTQYLGLFIHKISFSG [YJL039C/NUP192] | 1.99 ± 0.076 | 1.8 ± 0.058 | 1.59 ± 0.1 | 1.89 ± 0.05
YYGCLENDHERGFFHLN [CSN12] | 3.14 ± 0.063 | 3.24 ± 0.068 | 3.21 ± 0.047 | 3.26 ± 0.044
YYKNFHNSVKRYQIMLP [SNM1] | 1.12 ± 0.042 | 1.36 ± 0.059 | 1.33 ± 0.11 | 1.47 ± 0.05
YYQRLRHMVDDKIHARA [RPB2] |  | 2.84 ± 0.28 | 3.12 ± 0.12 | 2.77 ± 0.15
YYVPYSKLMPVLKSSVY [RPC82] | 1.53 ± 0.064 | 1.85 ± 0.079 | 1.57 ± 0.098 | 1.74 ± 0.079
